Assay results: publication PMC8604728

What was measured:
[1] = target: wild-type cholecystokinin A receptor (CCKAR) (UniProt P32238)
[2] = target: wild-type cholecystokinin A receptor (CCKAR) (UniProt P32238); remark: listed apart in the source
[3] = target: CCKAR I296G (UniProt P32238)

Substance: Gi heterotrimer of the BRET G-protein dissociation assay (from UniProt P63096 1-354; P62873 1-340; P59768 1-71) (complex)
- pEC50 of CCK-8 in the BRET G-protein dissociation assay (Gβγ-Venus to GRK3ct-luciferase), cells with CCKAR and Gi (Supplementary Table 3, Receptor + Gi) [1]: 7.32

Substance: Gi heterotrimer of the NanoBiT G-protein recruitment assay (Gαi1, SmBiT-fused human Gβ1, human Gγ2) (from UniProt P63096 1-354; P62873 1-340; P59768 1-71) (complex)
- pEC50 of CCK-8, Gi-coupling activity by NanoBiT G-protein recruitment assay (CCKAR-LgBiT and SmBiT-Gβ1 in sf9 cells; Supplementary Table 4, WT) [2]: 6.81
- pEC50 of CCK-8, Gi-coupling activity by NanoBiT G-protein recruitment assay (CCKAR-LgBiT and SmBiT-Gβ1 in sf9 cells; Supplementary Table 4, I296G) [3]: 6.66

Substance: Gq heterotrimer of the BRET G-protein dissociation assay (from UniProt P50148 1-359; P62873 1-340; P59768 1-71) (complex)
- pEC50 of CCK-8, Gq-coupling activity by BRET assay (Supplementary Table 4, WT) [2]: 9.14
- pEC50 of CCK-8, Gq-coupling activity by BRET assay (Supplementary Table 4, I296G) [3]: 8.38
- pEC50 of CCK-8 in the BRET G-protein dissociation assay (Gβγ-Venus to GRK3ct-luciferase), cells with CCKAR and Gq (Supplementary Table 3, Receptor + Gq) [1]: 8.42

Substance: Gs heterotrimer of the BRET G-protein dissociation assay (from UniProt P63092 1-394; P62873 1-340; P59768 1-71) (complex)
- pEC50 of CCK-8 in the BRET G-protein dissociation assay (Gβγ-Venus to GRK3ct-luciferase), cells with CCKAR and Gs (Supplementary Table 3, Receptor + Gs) [1]: 7.92

Substance: Gs heterotrimer of the NanoBiT G-protein dissociation assay (Gαs-LgBiT, Gβ, SmBiT-Gγ) (from UniProt P63092 1-394; P62873 1-340; P59768 1-71) (complex)
- pEC50 of CCK-8, Gs-coupling activity by NanoBiT G-protein dissociation assay (Gαs-LgBiT and SmBiT-Gγ in HEK 293T/17 cells; Supplementary Table 4, WT) [2]: 10.5
- pEC50 of CCK-8, Gs-coupling activity by NanoBiT G-protein dissociation assay (Gαs-LgBiT and SmBiT-Gγ in HEK 293T/17 cells; Supplementary Table 4, I296G) [3]: 10.5
